The source of these data is IntAct's records for PubMed 23395182.

To fix the notation:
B1: Syndecan-1 (Homo sapiens), P18827 (parent)
chain: MRRAALWLWLCALALSLQPALPQIVATNLPPEDQDGSGDDSDNFSGSGAGALQDITLSQQTPSTWKDTQLLTAIPTSPEPTGLEATAASTSTLPAGEGPKEGEAVVLPEVEPGLTAREQEATPRPRETTQLPTTHLASTTTATTAQEPATSHPHRDMQPGHHETSTPAGPSQADLHTPHTEDGGPSATERAAEDGASSQLPAAEGSGEQDFTFETSGENTAVVAVEPDRRNQSPVDQGATGASQGLLDRKEVLGGVIAGGLVGLIFAVCLVGFMLYRMKKKDEGSYSLEEPKQANGGAYQKPTKQEEFYA
B2: Rho guanine nucleotide exchange factor TIAM1 (Homo sapiens), Q13009 (parent)
chain: MGNAESQHVEHEFYGEKHASLGRKHTSRSLRLSHKTRRTRHASSGKVIHRNSEVSTRSSSTPSIPQSLAENGLEPFSQDGTLEDFGSPIWVDRVDMGLRPVSYTDSSVTPSVDSSIVLTAASVQSMPDTEESRLYGDDATYLAEGGRRQHSYTSNGPTFMETASFKKKRSKSADIWREDSLEFSLSDLSQEHLTSNEEILGSAEEKDCEEARGMETRASPRQLSTCQRANSLGDLYAQKNSGVTANGGPGSKFAGYCRNLVSDIPNLANHKMPPAAAEETPPYSNYNTLPCRKSHCLSEGATNPQISHSNSMQGRRAKTTQDVNAGEGSEFADSGIEGATTDTDLLSRRSNATNSSYSPTTGRAFVGSDSGSSSTGDAARQGVYENFRRELEMSTTNSESLEEAGSAHSDEQSSGTLSSPGQSDILLTAAQGTVRKAGALAVKNFLVHKKNKKVESATRRKWKHYWVSLKGCTLFFYESDGRSGIDHNSIPKHAVWVENSIVQAVPEHPKKDFVFCLSNSLGDAFLFQTTSQTELENWITAIHSACATAVARHHHKEDTLRLLKSEIKKLEQKIDMDEKMKKMGEMQLSSVTDSKKKKTILDQIFVWEQNLEQFQMDLFRFRCYLASLQGGELPNPKRLLAFASRPTKVAMGRLGIFSVSSFHALVAARTGETGVRRRTQAMSRSASKRRSRFSSLWGLDTTSKKKQGRPSINQVFGEGTEAVKKSLEGIFDDIVPDGKREKEVVLPNVHQHNPDCDIWVHEYFTPSWFCLPNNQPALTVVRPGDTARDTLELICKTHQLDHSAHYLRLKFLIENKMQLYVPQPEEDIYELLYKEIEICPKVTQSIHIEKSDTAADTYGFSLSSVEEDGIRRLYVNSVKETGLASKKGLKAGDEILEINNRAADALNSSMLKDFLSQPSLGLLVRTYPELEEGVELLESPPHRVDGPADLGESPLAFLTSNPGHSLCSEQGSSAETAPEETEGPDLESSDETDHSSKSTEQVAAFCRSLHEMNPSDQSPSPQDSTGPQLATMRQLSDADKLRKVICELLETERTYVKDLNCLMERYLKPLQKETFLTQDELDVLFGNLTEMVEFQVEFLKTLEDGVRLVPDLEKLEKVDQFKKVLFSLGGSFLYYADRFKLYSAFCASHTKVPKVLVKAKTDTAFKAFLDAQNPKQQHSSTLESYLIKPIQRILKYPLLLRELFALTDAESEEHYHLDVAIKTMNKVASHINEMQKIHEEFGAVFDQLIAEQTGEKKEVADLSMGDLLLHTTVIWLNPPASLGKWKKEPELAAFVFKTAVVLVYKDGSKQKKKLVGSHRLSIYEDWDPFRFRHMIPTEALQVRALASADAEANAVCEIVHVKSESEGRPERVFHLCCSSPESRKDFLKAVHSILRDKHRRQLLKTESLPSSQQYVPFGGKRLCALKGARPAMSRAVSAPSKSLGRRRRRLARNRFTIDSDAVSASSPEKESQQPPGGGDTDRWVEEQFDLAQYEEQDDIKETDILSDDDEFCESVKGASVDRDLQERLQATSISQRERGRKTLDSHASRMAQLKKQAALSGINGGLESASEEVIWVRREDFAPSRKLNTEI
partner: B1 chain

The variants in one assay derive from B1. Conditions: with tiam1_human TIAM1, Q13009.
With MRRAALWLWLCALALSLQPALPQIVATNLPPEDQDGSGDDSDNFSGSGAGALQDITLSQQTPSTWKDTQLLTAIPTSPEPTGLEATAASTSTLPAGEGPKEGEAVVLPEVEPGLTAREQEATPRPRETTQLPTTHLASTTTATTAQEPATSHPHRDMQPGHHETSTPAGPSQADLHTPHTEDGGPSATERAAEDGASSQLPAAEGSGEQDFTFETSGENTAVVAVEPDRRNQSPVDQGATGASQGLLDRKEVLGGVIAGGLVGLIFAVCLVGFMLYRMKKKDEGSYSLEEPKQANGGAYQKPTKQKEFYA [E306K], the “effect of a mutation on the interaction” value is on record as “decreasing interaction strength”.

Variants of B2 are the subject of the next assay. Conditions: with sdc1_human SDC1, P18827.
In the case of K912E, the “effect of a mutation on the interaction” value was “decreasing interaction strength”.

For K879E, the “effect of a mutation on the interaction” value was “decreasing interaction strength”.
